Experimental data from patent US9266964.
Numbering of substitutions follows the chain as printed. Like-named read-outs stand apart in the source and are kept apart here.

What was measured:
mouse plasma kallikrein [1] = target: T1, mouse plasma kallikrein (mouse, UniProt P26262 20-638, limits assumed); assay: apparent inhibition constant (Ki,app) from enzyme inhibition of rodent pKal
T1 construct: also called mouse pKal; rodent pKal
T1 sequence (P26262 20-638 limits assumed): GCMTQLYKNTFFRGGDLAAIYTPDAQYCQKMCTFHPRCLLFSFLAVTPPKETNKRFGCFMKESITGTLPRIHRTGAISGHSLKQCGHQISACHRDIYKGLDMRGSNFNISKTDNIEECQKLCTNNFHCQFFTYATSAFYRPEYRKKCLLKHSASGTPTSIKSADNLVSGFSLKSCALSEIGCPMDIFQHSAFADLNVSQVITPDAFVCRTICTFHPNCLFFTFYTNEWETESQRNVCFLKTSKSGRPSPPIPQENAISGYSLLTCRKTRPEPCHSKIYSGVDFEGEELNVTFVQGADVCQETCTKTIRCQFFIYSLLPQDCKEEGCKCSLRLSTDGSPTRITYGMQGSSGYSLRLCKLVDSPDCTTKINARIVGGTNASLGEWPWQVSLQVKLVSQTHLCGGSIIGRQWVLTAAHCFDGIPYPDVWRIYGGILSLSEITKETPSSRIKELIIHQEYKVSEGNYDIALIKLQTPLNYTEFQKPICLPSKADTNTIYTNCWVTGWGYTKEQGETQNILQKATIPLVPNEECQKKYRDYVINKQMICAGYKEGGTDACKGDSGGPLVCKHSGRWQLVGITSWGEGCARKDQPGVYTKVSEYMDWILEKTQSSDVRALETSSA

human plasma kallikrein [2] = target: T2, human plasma kallikrein (human, UniProt P03952 20-390; P03952 391-638); assay: apparent inhibition constant (Ki,app) from enzyme inhibition of human pKal; Fab
T2 construct: two disulfide-linked chains; also called pKal; human pKal
T2 sequence (P03952 20-390, chain 1 of 2): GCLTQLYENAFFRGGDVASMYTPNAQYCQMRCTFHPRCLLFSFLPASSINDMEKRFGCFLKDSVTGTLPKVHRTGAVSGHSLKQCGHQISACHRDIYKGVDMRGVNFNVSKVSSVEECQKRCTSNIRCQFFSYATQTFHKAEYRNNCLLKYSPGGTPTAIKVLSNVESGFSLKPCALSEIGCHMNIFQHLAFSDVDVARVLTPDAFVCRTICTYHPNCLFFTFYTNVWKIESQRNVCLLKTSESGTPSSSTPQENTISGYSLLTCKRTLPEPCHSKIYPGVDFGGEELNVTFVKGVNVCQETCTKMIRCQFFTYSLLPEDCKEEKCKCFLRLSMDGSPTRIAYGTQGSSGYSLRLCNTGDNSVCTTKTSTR
T2 sequence (P03952 391-638, chain 2 of 2): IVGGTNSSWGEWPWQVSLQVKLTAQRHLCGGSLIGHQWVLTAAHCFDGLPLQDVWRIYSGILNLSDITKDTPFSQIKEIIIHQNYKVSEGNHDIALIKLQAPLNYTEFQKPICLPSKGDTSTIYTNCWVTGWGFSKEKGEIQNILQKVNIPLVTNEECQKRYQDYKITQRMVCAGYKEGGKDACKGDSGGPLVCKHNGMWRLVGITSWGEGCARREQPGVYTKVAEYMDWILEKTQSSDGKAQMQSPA

mouse plasma kallikrein [3] = target: T3, mouse plasma kallikrein (mouse, UniProt P26262 20-638, limits assumed); assay: apparent Ki (Ki,app), inhibition of rodent pKal enzyme activity
T3 construct: also called mouse pKal
T3 sequence (P26262 20-638 limits assumed): as the sequence (P26262 20-638 limits assumed) above

[4] = target: T4, human plasma kallikrein (active form) (human, UniProt P03952 20-390; P03952 391-638); assay: apparent Ki (Ki,app), inhibition of human pKal enzyme activity
T4 construct: also called pKal; human pKal
T4 sequence (P03952 20-390, chain 1 of 2): as the sequence (P03952 20-390, chain 1 of 2) above
T4 sequence (P03952 391-638, chain 2 of 2): as the sequence (P03952 391-638, chain 2 of 2) above

human plasma kallikrein [5] = target: T5, human plasma kallikrein (human, UniProt P03952 20-390; P03952 391-638); assay: Ki,app as an IgG, steady state enzyme kinetics, inhibition of human pKal
T5 construct: two disulfide linked chains; also called pKal; human pKal
T5 sequence (P03952 20-390, chain 1 of 2): as the sequence (P03952 20-390, chain 1 of 2) above
T5 sequence (P03952 391-638, chain 2 of 2): as the sequence (P03952 391-638, chain 2 of 2) above

human plasma kallikrein [6] = target: T5, human plasma kallikrein; assay: Ki,app of IgG, enzyme inhibition of human pKal
[7] = target: T4, human plasma kallikrein (active form); assay: apparent Ki (Ki,app), inhibition of human pKal enzyme activity; remark: listed apart in the source
Procedure: (§1) Apparent Inhibition constants (K_{i,app} values) were measured by pre-incubating enzyme and inhibitor solutions prior to initiating the reactions with substrate. Enzyme and inhibitor were pre-incubated for 2 hours at 30° C. in a 96-well plate by adding 10 μL of a 10× enzyme solution and 10 μL of 10× inhibitor solutions to 70 μL of reaction buffer. Reactions were initiated by the addition of 10 μL of a 10× concentrated stock of substrate, and were monitored at 30° C. in a fluorescence plate reader with the excitation and emission wavelengths set at 360 nm/460 nm, respectively. Kinetic data were acquired by the increase in fluorescence, and initial rates for each condition were plotted against the total inhibitor concentration. The data was fit to the following equation for tight binding inhibitors: […]

[8] = target: T6, wild type pKal catalytic domain (human, UniProt P03952 391-638, limits assumed); assay: apparent Ki (Ki,app), enzyme inhibition, wild type pKal catalytic domain
T6 construct: domain: catalytic domain; also called WT cat; Domain; not shown: His tag fusion
T6 sequence (P03952 391-638 limits assumed): as the sequence (P03952 391-638, chain 2 of 2) above
Procedure: as §1

[9] = target: T7, pKal catalytic domain Mutant 2 (human, UniProt P03952 391-638, limits assumed); assay: apparent Ki (Ki,app), enzyme inhibition, pKal catalytic domain Mutant 2
T7 construct: domain: catalytic domain; Expressed in Pichia pastoris, purified by IMAC; not shown: His tag fusion
T7 sequence (P03952 other isoform, or with tags, fused parts or gaps mutant limits assumed): as the sequence (P03952 391-638, chain 2 of 2) above, with R161A, Q163A, Y165A, T168A, R170A counted along it
Procedure: as §1

mouse plasma kallikrein [10] = target: T3, mouse plasma kallikrein; assay: apparent Ki (Ki,app), inhibition of mouse pKal enzyme activity
Procedure: as §1

[11] = target: T8, pKal catalytic domain Mutant 1 (human, UniProt P03952 391-638, limits assumed); assay: apparent Ki (Ki,app), enzyme inhibition, pKal catalytic domain Mutant 1
T8 construct: domain: catalytic domain; Expressed in Pichia pastoris, purified by IMAC; not shown: His tag fusion
T8 sequence (P03952 other isoform, or with tags, fused parts or gaps mutant limits assumed): as the sequence (P03952 391-638, chain 2 of 2) above, with S88A, N91A, S135A, K136A counted along it
Procedure: as §1

human plasma kallikrein [12] = target: T2, human plasma kallikrein; assay: apparent inhibition constant (Ki,app) from enzyme inhibition of human pKal; IgG
human plasma kallikrein [13] = target: T5, human plasma kallikrein; assay: Ki,app, enzyme inhibition of pKal, IgG
human plasma kallikrein [14] = target: T5, human plasma kallikrein; assay: Ki,app, enzyme inhibition of pKal; antibody format not stated
rat plasma kallikrein [15] = target: T9, rat plasma kallikrein (rat, UniProt P14272 20-638, limits assumed); assay: apparent Ki (Ki,app), inhibition of rodent pKal enzyme activity
T9 construct: also called rat pKal
T9 sequence (P14272 20-638 limits assumed): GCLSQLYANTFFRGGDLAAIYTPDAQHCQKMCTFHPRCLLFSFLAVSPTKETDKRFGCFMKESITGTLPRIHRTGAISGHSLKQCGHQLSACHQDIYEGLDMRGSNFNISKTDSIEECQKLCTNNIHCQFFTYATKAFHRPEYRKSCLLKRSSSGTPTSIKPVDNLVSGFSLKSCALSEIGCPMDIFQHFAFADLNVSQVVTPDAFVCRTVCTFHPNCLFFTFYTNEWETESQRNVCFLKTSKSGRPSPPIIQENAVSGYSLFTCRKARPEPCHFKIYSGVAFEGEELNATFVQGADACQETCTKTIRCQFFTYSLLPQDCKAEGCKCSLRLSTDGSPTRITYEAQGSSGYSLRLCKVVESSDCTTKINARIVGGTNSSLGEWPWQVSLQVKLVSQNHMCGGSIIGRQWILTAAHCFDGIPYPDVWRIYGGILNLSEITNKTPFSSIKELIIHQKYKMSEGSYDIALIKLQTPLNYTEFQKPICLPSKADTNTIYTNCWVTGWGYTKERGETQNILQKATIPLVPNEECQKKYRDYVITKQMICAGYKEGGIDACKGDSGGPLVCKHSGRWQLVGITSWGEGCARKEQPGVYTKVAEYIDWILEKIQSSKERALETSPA

human plasma kallikrein [16] = target: T5, human plasma kallikrein; assay: Ki,app, enzyme inhibition of pKal, Fab
rat plasma kallikrein [17] = target: T10, rat plasma kallikrein (rat, UniProt P14272 20-638, limits assumed); assay: apparent inhibition constant (Ki,app) from enzyme inhibition of rodent pKal
T10 construct: also called rat pKal; rodent pKal
T10 sequence (P14272 20-638 limits assumed): as above

B1: M142-H08 (Fab) (Fab, V domains shown)
VH: EVQLLESGGGLVQPGGSLRLSCAASGFTFSAYSMIWVRQAPGKGLEWVSYIRPSGGRTTYADSVKGRFTISRDNSKNTLYLQMNSLRAEDTAVYYCARGGLLLWFRELKSNYFDYWGQGTLVTVSS
VL: DIQMTQSPSSLSAFVGDRVTITCRASQPIDNYLNWYHQKPGKAPKLLIYAASRLQSGVPSRLSGSGFGTDFTLTISSLQPEDFGNYYCQQSYTVPYTFGGGTKVEIR
notes: Fab; printed HC runs into the start of CH1
- Ki (mouse plasma kallikrein [1]): ~1 nM
- Ki (human plasma kallikrein [2]): 0.6 nM

B2: X67-D03 (antibody, V domains shown)
VH: B1 VH with F105N
VL: B1 VL
notes: Tested as IgG; Single point mutant (F to N in HC CDR3) of M142-H08; also called X67-D03 (IgG); 559A-X67-D03
- Ki (mouse plasma kallikrein [3]): 0.7 nM
- Ki [4]: 0.1 nM

B3: X67-G04 (IgG) (antibody, V domains shown)
VH: B1 VH with F105A
VL: B1 VL
notes: printed HC runs into CH1
- Ki (human plasma kallikrein [5]): 0.35 nM
- Ki (human plasma kallikrein [6]): 0.35 nM

B4: X67-D03 (IgG) (antibody, V domains shown)
VH: B1 VH with F105N
VL: B1 VL
notes: printed HC runs into CH1; also called 559A-X67-D03
- Ki (human plasma kallikrein [5]): 0.1 nM
- Ki (human plasma kallikrein [6]): 0.1 nM

B5: M145-D11 (Fab, V domains shown)
VH: EVQLLESGGGLVQPGGSLRLSCAASGFTFSHYRMSWVRQAPGKGLEWVSSIYPSGGRTVYADSVKGRFTISRDNSKNTLYLQMNSLRAEDTAVYYCAKDKFEWRLLFRGIGNDAFDIWGQGTMVTVSS
VL: QSVLTQPPSVSVSPGQTASITCSGDKLGDKYTSWYQQRPGQSPVLVIYQDIKRPSGIPERFSGSNSGNTATLTISGTQAMDEADYYCQAWDSPNARVFGSGTKVTVL
notes: also called 559A-M145-D11 (sFab); 559A-M0145-D11
- Ki [7]: 0.79 nM
- Ki [8]: 0.16 nM
- Ki [9]: 0.1 nM
- Ki (mouse plasma kallikrein [10]): 800 nM
- Ki [11]: 0.23 nM

B6: M29-D09 (Fab, V domains shown)
VH: EVQLLESGGGLVQPGGSLRLSCAASGFTFSWYTMVWVRQAPGKGLEWVSYIYPSGGATFYADSVKGRFTISRDNSKNTLYLQMNSLRAEDTAVYYCAMGSYDYIWGFYSDHWGQGTLVTVSS
VL: QSALTQPPTVSVSPGQTARITCSGNKLGDKYVAWYQQKPGQSPMLVIYQDTKRPSRVSERFSGSNSANTATLSISGTQALDEADYYCQAWDSSIVIFGGGTRLTVL
notes: also called 559A-M29-D09 (sFab); 559A-M0029-D09
- Ki [7]: 0.7 nM
- Ki [8]: 0.24 nM
- Ki [9]: 0.34 nM
- Ki [11]: 0.27 nM

B7: M160-G12 (IgG) (antibody, V domains shown)
VH: EVQLLESGGGLVQPGGSLRLSCAASGFTFSHYLMTWVRQAPGKGLEWVSYISPSGGHTIYADSVKGRFTISRDNSKNTLYLQMNSLRAEDTAVYYCARVARGIAARSRTSYFDYWGQGTLVTVSS
VL: DIQMTQSPSFLSASVGDRVTITCRASQGISSYLAWYQQKPGKAPKLLIYAASTLQSGVPSRFSGSGSGTEFTLTISSLQPEDFATYYCQQLNSYPLTFGGGTKVEIK
notes: Human IgG; also called R84-D02
- Ki (mouse plasma kallikrein [1]): < 1 nM
- Ki (human plasma kallikrein [12]): 5.6 nM

B8: X81-B01 (antibody, V domains shown)
VH: B7 VH
VL: EIVLTQSPGTLSLSPGERATLSCRTSQFVNSNYLAWYQQKPGQAPRLLIYGASSRATGIPDRFSGSGSGTDFTLTISRLEPEDFAVYYCQQSSRTPWTFGQGTKVEIK
notes: also called X81-B01 (IgG)
- Ki (human plasma kallikrein [13]): 0.2 nM

B9: X63-G10 (antibody, V domains shown)
VH: B7 VH
VL: DIQMTQSPDSLSASVGDRVTITCRASQSISNYLNWYQQKPGKAPKLLIYAASSLQSGVPSRFSGSGSGTDFTLTISGLQPEDFASYYCQQSYTSPYTFVQGTKLEIKR
notes: Found by ROLIC light chain shuffling
- Ki (human plasma kallikrein [14]): 9 nM

B10: X64-F04 (antibody, V domains shown)
VH: B7 VH
VL: DIQMTQSPATLSLSPGERATLSCRASQIVSSNYLAWYQQKPGQAPRLLIYGASNRATGIPDRFSGSGSGTEFTLTISSLQSEDFAIYYCQQSFNIPYTFGQGTRVDIK
notes: as for B9
- Ki (human plasma kallikrein [14]): 1.9 nM

B11: X60-D01 (antibody, V domains shown)
VH: B7 VH
VL: DIQMTQSPGTLSLSPGERATLSCRASQIVSSRYLAWYQQRPGQAPRLLIYGAASRATGIPDRFSGSGSGTDFTLTISSLQAEDFATYYCQQTYSSPFTFGQGTKMEIK
notes: as for B9
- Ki (human plasma kallikrein [14]): 2 nM

B12: X81-B01 (antibody, V domains shown)
VH: B7 VH
VL: B8 VL
notes: also called X81-B01 (IgG); 559A-X81-B01
- Ki [7]: 0.1 nM
- Ki (mouse plasma kallikrein [3]): 0.011 nM
- Ki (rat plasma kallikrein [15]): 0.14 nM
- Ki [4]: 0.2 nM
- Ki (mouse plasma kallikrein [10]): 0.011 nM

B13: X63-G06 (Fab, V domains shown)
VH: B7 VH
VL: B8 VL with E1D, V3Q, L4M, K40T, S66T, S68Y, F84Y, A85G, V86T, K104R
notes: Non-germlined Fab discovered using ROLIC, same HC but different LC as M160-G12; also called X63-G06 (Fab)
- Ki (human plasma kallikrein [16]): 0.4 nM

B14: X59-C07 (antibody, V domains shown)
VH: B7 VH
VL: DIQMTQSPSSLSASVGDRVTVTCRAGRSISTYVNWYQQKPGKAPKLLIYAASSLQSGVPSRFSGSRSGTDFTLTISSLQPEDFATYYCQQSQSTPYTFGQGTKLEVK
notes: as for B9
- Ki (human plasma kallikrein [14]): 6.1 nM

B15: M160-G12 (antibody, V domains shown)
VH: B7 VH
VL: B7 VL
notes: also called R84-D02
- Ki [7]: 5 nM
- Ki (mouse plasma kallikrein [10]): 0.2 nM

B16: M6-D09 (antibody, V domains shown)
VH: EVQLLESGGGLVQPGGSLRLSCAASGFTFSFYYMVWVRQAPGKGLEWVSVIYPSGGITVYADSVKGRFTISRDNSKNTLYLQMNSLRAEDTAVYYCARDKWAVMPPYYYYAMDVWGQGTTVTVSS
VL: DIQMTQSPSSLSASVGDRVTITCRASQSIRNYLNWYQQKPGKAPNLLIYAASTLQSGVPARFSGSGSGTDFTLTISSLQPEDFATYYCQQLSGYPHTFGQGTKLEIK
notes: also called M06-D09; 559A-M06-D09
- Ki [7]: 5.9 nM
- Ki [8]: 2.5 nM
- Ki [9]: 13.5 nM
- Ki (mouse plasma kallikrein [10]): 3.9 nM
- Ki [11]: 3.4 nM

B17: M35-G04 (antibody, V domains shown)
VH: EVQLLESGGGLVQPGGSLRLSCAASGFTFSYYHMSWVRQAPGKGLEWVSVISPSGGSTKYADSVKGRFTISRDNSKNTLYLQMNSLRAEDTAVYYCARGGSSDYAWGSYRRPYYFDYWGQGTLVTVSS
VL: DIQMTQSPATLSLSPGERATLSCRASQSVSSYLAWYQQKPGQAPRLLIYDASNRATGIPARFSGSGSGTDFTLTISSLEPEDFAVYYCQQRSNWPRGFTFGPGTKVDIK
notes: also called 559A-M35-G04; 559A-M0035-G04
- Ki [7]: 2.9 nM
- Ki [8]: 0.8 nM
- Ki [9]: 1.1 nM
- Ki (mouse plasma kallikrein [10]): 8 nM
- Ki [11]: 0.09 nM

B18: M162-A04 (IgG) (antibody, V domains shown)
VH: EVQLLESGGGLVQPGGSLRLSCAASGFTFSHYIMMWVRQAPGKGLEWVSGIYSSGGITVYADSVKGRFTISRDNSKNTLYLQMNSLRAEDTAVYYCAYRRTGIPRRDAFDIWGQGTMVTVSS
VL: DIQMTQSPSTLSASVGDRVTITCRASQSISSWLAWYQQKPGKAPNLLIYKASTLESGVPSRFSGSGSGTEFTLTISSLQPDDFATYYCQQYNTYWTFGQGTKVEIK
notes: Human IgG; also called R84-H05; 559A-M0162-A04
- Ki (rat plasma kallikrein [17]): 2 nM
- Ki (mouse plasma kallikrein [1]): 2 nM
- Ki (human plasma kallikrein [12]): 2 nM
